Measured values taken from patent publication US20180291335A1, “MODIFIED POLYNUCLEOTIDES FOR ALTERING CELL PHENOTYPE” (ModernaTX, Inc., priority 2012, published 2018).

Legend:
HeLa cells [1] = experiment: Luciferase in HeLa cells using a combination of modifications; format: cell-based, human; conditions: 83 ng luciferase modified RNA, 18 to 22 hours
Method: To evaluate using of 2′fluoro-modified mRNA in combination with other modification a series of mRNA were transcribed using either wild-type T7 polymerase (non-fluoro-containing compounds) or using mutant T7 polymerases (fluyoro-containing compounds) as described in Example 86. All modified mRNA were tested by in vitro transfection in HeLa cells.
The day before transfection, 20,000 HeLa cells (ATCC no. CCL-2; Manassas, Va.) were harvested by treatment with Trypsin-EDTA solution (LifeTechnologies, Grand Island, N.Y.) and seeded in a total volume of 100 ul EMEM medium (supplemented with 10% FCS and 1× Glutamax) per well in a 96-well cell culture plate (Corning, Manassas, Va.). The cells were grown at […] in 5% CO2 atmosphere overnight. […] Lipofectamine 2000 (LifeTechnologies, Grand Island, N.Y.) was used as transfection reagent and 0.2 ul were diluted in 10 ul final volume of OPTI-MEM. After 5 minutes of incubation at room temperature, both solutions were combined and incubated an additional 15 minute at room temperature. Then the 20 ul combined solution was added to the 100 ul cell culture medium containing the HeLa cells and incubated at room temperature.
After 18 to 22 hours of incubation cells expressing luciferase were lysed with 100 ul of Passive Lysis Buffer (Promega, Madison, Wis.) according to manufacturer instructions. Aliquots of the lysates were transferred to white opaque polystyrene 96-well plates (Corning, Manassas, Va.) and combined with 100 ul complete luciferase assay solution (Promega, Madison, Wis.). The lysate volumes were adjusted or diluted until no more than 2 mio relative light units (RLU) per well were detected for the strongest signal producing samples and the RLUs for each chemistry tested are shown in Table 26. The plate reader was a BioTek Synergy H1 (BioTek, Winooski, Vt.). The background signal of the plates without reagent was about 200 relative light units per well.

interferon-alpha (IFN-α) = experiment: In vitro screening in PBMC: interferon-alpha induction by ELISA; format: cell-based, human
Excerpt: (§1) The supernatant was harvested and stored frozen until analyzed by ELISA to determine the G-CSF protein expression, and the induction of the cytokines interferon-alpha (IFN-α) and tumor necrosis factor alpha (TNF-α).

rabbit reticulysates = experiment: G-CSF modified mRNA in rabbit reticulysates, G-CSF ELISA; format: biochemical; conditions: 250 ng of modified mRNA, listed as 5-methylcytosine/pseudouridine
Method: (§2) To assess the activity of all our different chemical modifications in the context of a second open reading frame, we replicated experiments previously conducted using luciferase mRNA, with human G-CSF mRNA. […] The mutant T7 polymerase was obtained commercially (Durascribe® T7 Transcription kit (Cat. No. DS010925) (Epicentre®, Madison, Wis.).
(§3) The modified RNA in Tables 27 and 28 were transfected in vitro in HeLa cells or added to rabbit reticulysates (250 ng of modified mRNA) as indicated. […] In Table 27, “NT” means not tested.

[2] = tested on: peripheral blood mononuclear cells (PBMC); experiment: In vitro screening in PBMC: G-CSF protein expression by ELISA; format: cell-based, human
Excerpt: as §1

HeLa cells [3] = experiment: G-CSF modified mRNA transfected in HeLa cells, G-CSF ELISA; format: cell-based, human; conditions: HeLa cells, ELISA
Method: as §2, §3

[4] = tested on: tumor necrosis factor alpha (TNF-α); experiment: In vitro screening in PBMC: tumor necrosis factor alpha induction by ELISA; format: cell-based, human
Excerpt: as §1

[5] = PBMC Donor 1, 500 ng G-CSF mRNA
[6] = PBMC Donor 1, 500 ng G-CSF mRNA, listed as 5-methylcytosine and pseudouridine (2nd set)
[7] = PBMC Donor 1, 500 ng G-CSF mRNA, listed as 5-methylcytosine and pseudouridine (3rd set)
[8] = PBMC Donor 1, 500 ng G-CSF mRNA, listed as 5-methylcytosine and pseudouridine (4th set)
[9] = PBMC Donor 2, 500 ng G-CSF mRNA
[10] = PBMC Donor 2, 500 ng G-CSF mRNA, listed as 5-methylcytosine and pseudouridine (2nd set)
[11] = PBMC Donor 2, 500 ng G-CSF mRNA, listed as 5-methylcytosine and pseudouridine (3rd set)
[12] = PBMC Donor 2, 500 ng G-CSF mRNA, listed as 5-methylcytosine and pseudouridine (4th set)
[13] = PBMC Donor 3, 500 ng G-CSF mRNA
[14] = PBMC Donor 3, 500 ng G-CSF mRNA, listed as 5-methylcytosine and pseudouridine (2nd set)
[15] = PBMC Donor 3, 500 ng G-CSF mRNA, listed as 5-methylcytosine and pseudouridine (3rd set)
[16] = PBMC Donor 3, 500 ng G-CSF mRNA, listed as 5-methylcytosine and pseudouridine (4th set)

2′Fluoroguanine/5-methylcytidine/N1 methylpsuedouridine: Luciferase mRNA (SEQ ID NO: 409) modified with the named combination
RLU (HeLa cells [1]): 235 RLU

2′Fluoroguanine/N1-methylpsuedouridine: Luciferase mRNA (SEQ ID NO: 409) modified with the named combination
RLU (HeLa cells [1]): 247 RLU

2′Fluoroguanine/pseudouridine: Luciferase mRNA (SEQ ID NO: 409) modified with the named combination
RLU (HeLa cells [1]): 218 RLU

B1: 5-methylcytosine and pseudouridine (1^st set): G-CSF mRNA (SEQ ID NO: 408) fully modified with 5-methylcytosine and pseudouridine; repeated sets/tests (nucleic acid)
chain: GGGAAAUAAGAGAGAAAAGAAGAGUAAGAAGAAAUAUAAGAGCCACCAUGGCCGGUCCCGCGACCCAAAGCCCCAUGAAACUUAUGGCCCUGCAGUUGCUGCUUUGGCACUCGGCCCUCUGGACAGUCCAAGAAGCGACUCCUCUCGGACCUGCCUCAUCGUUGCCGCAGUCAUUCCUUUUGAAGUGUCUGGAGCAGGUGCGAAAGAUUCAGGGCGAUGGAGCCGCACUCCAAGAGAAGCUCUGCGCGACAUACAAACUUUGCCAUCCCGAGGAGCUCGUACUGCUCGGGCACAGCUUGGGGAUUCCCUGGGCUCCUCUCUCGUCCUGUCCGUCGCAGGCUUUGCAGUUGGCAGGGUGCCUUUCCCAGCUCCACUCCGGUUUGUUCUUGUAUCAGGGACUGCUGCAAGCCCUUGAGGGAAUCUCGCCAGAAUUGGGCCCGACGCUGGACACGUUGCAGCUCGACGUGGCGGAUUUCGCAACAACCAUCUGGCAGCAGAUGGAGGAACUGGGGAUGGCACCCGCGCUGCAGCCCACGCAGGGGGCAAUGCCGGCCUUUGCGUCCGCGUUUCAGCGCAGGGCGGGUGGAGUCCUCGUAGCGAGCCACCUUCAAUCAUUUUUGGAAGUCUCGUACCGGGUGCUGAGACAUCUUGCGCAGCCGUGAAGCGCUGCCUUCUGCGGGGCUUGCCUUCUGGCCAUGCCCUUCUUCUCUCCCUUGCACCUGUACCUCUUGGUCUUUGAAUAAAGCCUGAGUAGGAAG
modifications: 5-methylcytosine/pseudouridine modified; Description of Artificial Sequence: Synthetic Transcript Sequence
notes: repeated sets/tests
IFN-α Expression (interferon-alpha (IFN-α); [5]): 88 pg/mL | IFN-α Expression (interferon-alpha (IFN-α); [6]): 133 pg/mL | IFN-α Expression (interferon-alpha (IFN-α); [7]): 88 pg/mL | IFN-α Expression (interferon-alpha (IFN-α); [8]): 131 pg/mL | IFN-α Expression (interferon-alpha (IFN-α); [9]): 94 pg/mL | IFN-α Expression (interferon-alpha (IFN-α); [10]): 92 pg/mL | IFN-α Expression (interferon-alpha (IFN-α); [11]): 75 pg/mL | IFN-α Expression (interferon-alpha (IFN-α); [12]): 28 pg/mL | IFN-α Expression (interferon-alpha (IFN-α); [13]): 148 pg/mL | IFN-α Expression (interferon-alpha (IFN-α); [14]): 167 pg/mL | IFN-α Expression (interferon-alpha (IFN-α); [15]): 150 pg/mL | IFN-α Expression (interferon-alpha (IFN-α); [16]): 18 pg/mL | G-CSF protein (pg/ml) Rabbit reticulysates cells (rabbit reticulysates; Test A): 119,750 pg/ml | G-CSF protein (pg/ml) Rabbit reticulysates cells (rabbit reticulysates; Test B): 57,875 pg/ml | G-CSF protein (pg/ml) Rabbit reticulysates cells (rabbit reticulysates; Test C): 49,250 pg/ml | G-CSF protein (pg/ml) Rabbit reticulysates cells (rabbit reticulysates; Test D): 47,750 pg/ml | G-CSF Protein Expression [2, 5]: 2,632 pg/ml | G-CSF Protein Expression [2, 6]: 1,682 pg/ml | G-CSF Protein Expression [2, 7]: 1,595 pg/ml | G-CSF Protein Expression [2, 8]: 264 pg/mL | G-CSF Protein Expression [2, 9]: 1,955 pg/ml | G-CSF Protein Expression [2, 10]: 1,382 pg/ml | G-CSF Protein Expression [2, 11]: 1,432 pg/ml | G-CSF Protein Expression [2, 12]: 350 pg/mL | G-CSF Protein Expression [2, 13]: 1,373 pg/ml | G-CSF Protein Expression [2, 14]: 1,036 pg/ml | G-CSF Protein Expression [2, 15]: 955 pg/mL | G-CSF Protein Expression [2, 16]: 182 pg/mL | G-CSF protein (pg/ml) HeLa cells (HeLa cells [3]; G-CSF mRNA, listed as 5-methylcytosine/pseudouridine, Test A): 609,545 pg/ml | G-CSF protein (pg/ml) HeLa cells (HeLa cells [3]; G-CSF mRNA, listed as 5-methylcytosine/pseudouridine, Test B): 358,182 pg/ml | G-CSF protein (pg/ml) HeLa cells (HeLa cells [3]; G-CSF mRNA, listed as 5-methylcytosine/pseudouridine, Test C): 882,500 pg/ml | G-CSF protein (pg/ml) HeLa cells (HeLa cells [3]; G-CSF mRNA, listed as 5-methylcytosine/pseudouridine, Test D): 87,045 pg/ml | G-CSF protein (pg/ml) HeLa cells (HeLa cells [3]; combination chemistries): 301,364 pg/ml | TNF-α Expression [4, 5]: 64 pg/mL | TNF-α Expression [4, 6]: 99 pg/mL | TNF-α Expression [4, 7]: 84 pg/mL | TNF-α Expression [4, 8]: 53 pg/mL | TNF-α Expression [4, 9]: 89 pg/mL | TNF-α Expression [4, 10]: 111 pg/mL | TNF-α Expression [4, 11]: 89 pg/mL | TNF-α Expression [4, 12]: 24 pg/mL | TNF-α Expression [4, 13]: 121 pg/mL | TNF-α Expression [4, 14]: 150 pg/mL | TNF-α Expression [4, 15]: 130 pg/mL | TNF-α Expression [4, 16]: 29 pg/mL
